Test results published in patent publication US20190185532A1 (UNIVERSITY OF BIRMINGHAM, published 2019).

Key:
Assay in all cases: flow cytometry on transfected HEK293T cells, streptavidin-PE
[1] = target: T1, thrombomodulin (human, C-terminal GFP tag, expressed in HEK293T) (human, UniProt P07204 19-575)
T1 construct: whole, on cells; On cells in flow cytometry; as non-reduced HEK293T lysate in far western blots; also called THBD; THBD wt; not shown: C-terminal green fluorescent protein (GFP) tag from vector pEGFP-N1
T1 sequence (P07204 19-575): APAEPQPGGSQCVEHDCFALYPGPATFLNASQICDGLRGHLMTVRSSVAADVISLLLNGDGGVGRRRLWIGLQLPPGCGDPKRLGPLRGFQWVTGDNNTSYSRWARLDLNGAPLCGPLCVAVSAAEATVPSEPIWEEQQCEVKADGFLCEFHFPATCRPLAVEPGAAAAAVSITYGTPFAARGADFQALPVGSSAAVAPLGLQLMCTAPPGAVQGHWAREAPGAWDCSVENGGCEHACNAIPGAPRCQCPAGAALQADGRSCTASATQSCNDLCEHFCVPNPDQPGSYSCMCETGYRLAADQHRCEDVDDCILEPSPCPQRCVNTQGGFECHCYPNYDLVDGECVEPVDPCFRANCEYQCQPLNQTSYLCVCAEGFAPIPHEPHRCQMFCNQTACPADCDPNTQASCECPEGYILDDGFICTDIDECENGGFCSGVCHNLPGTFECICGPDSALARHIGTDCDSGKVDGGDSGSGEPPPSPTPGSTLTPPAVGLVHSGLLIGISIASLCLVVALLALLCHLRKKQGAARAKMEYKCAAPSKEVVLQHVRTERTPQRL
Source text: (§1) The minimal CLEC14A binding fragment is highlighted in black. (B,C) HEK293T were transfected with truncation mutants. Lysates were far western blotted under reduced conditions with CLEC14A extracellular domain fused to an Fc tag (CLEC14A-ECD-Fc) and western blotted by use of His tag antibodies. (B) The smallest binding fragment was identified as MMRN2⁴⁸⁷⁻⁸²⁰, MMRN2^FL fails to bind CLEC14A-ECD-Fc. (C) The smallest MMRN2 fragment binding CLEC14A is MMRN2⁵³⁰⁻⁶²⁴. (D) MMRN2⁴⁹⁵⁻⁶⁷⁴ and MMRN2⁴⁹⁵⁻⁶⁰³ bind to streptavidin under reducing conditions after biotinylation. (E) Flow cytometry histograms of HEK293T transfected with GFP tagged CTLD group 14 family members and stained with biotinylated MMRN2⁴⁹⁵⁻⁶⁷⁴ (grey line), confirming binding to CLEC14A and CD93 but not thrombomodulin. Streptavidin-PE was used as a control for background binding (grey shaded).
(§2) The human MMRN2⁴⁹⁵⁻⁶⁷⁴ fragment along with the non-CLEC14A binding fragment MMRN2⁴⁹⁵⁻⁶⁰³ was expressed in E. coil with a His tag for purification and a BirA tag for specific biotinylation (17). Biotinylated proteins could bind to streptavidin in western blots (FIG. 2D) and MMRN2⁴⁹⁵⁻⁶⁷⁴ could bind to cell surface expressed CLEC14A and CD93 but not thrombomodulin detected by flow cytometry. This confirmed the CLEC14A and CD93 interactions likely occur in the same region of MMRN2 (FIG. 2E).
(§3) HUVEC or transfected HEK293T cells were detached from tissue culture plates using cell dissociation buffer or scraped and 5×10⁵ cells were stained with 20 ug/mL of antibody of interest or 20 μg/mL of recombinant protein. In blocking experiments, hCLEC14A-ECD-Fc was incubated with 2× molar excess of antibody or recombinant protein on ice for 1 hour. Flow cytometry buffer (PBS with 0.2% (w/v) BSA and 0.02% (w/v) sodium azide) was used for all wash and incubation steps. Samples were analysed on a FACSCalibur machine (BD Biosciences). […] Isotype control staining or human Fc alone was used as background fluorescence and this was subtracted from the geometric mean fluorescence intensity of each sample.

[2] = target: T2, CLEC14A (human, wild type, C-terminal GFP tag, expressed in HEK293T) (human, UniProt Q86T13 22-490)
T2 construct: On cells in flow cytometry; as non-reduced HEK293T lysate in far western blots; also called CLEC14A wt; cell surface expressed CLEC14A; not shown: C-terminal green fluorescent protein (GFP) tag from vector pEGFP-N1
T2 sequence: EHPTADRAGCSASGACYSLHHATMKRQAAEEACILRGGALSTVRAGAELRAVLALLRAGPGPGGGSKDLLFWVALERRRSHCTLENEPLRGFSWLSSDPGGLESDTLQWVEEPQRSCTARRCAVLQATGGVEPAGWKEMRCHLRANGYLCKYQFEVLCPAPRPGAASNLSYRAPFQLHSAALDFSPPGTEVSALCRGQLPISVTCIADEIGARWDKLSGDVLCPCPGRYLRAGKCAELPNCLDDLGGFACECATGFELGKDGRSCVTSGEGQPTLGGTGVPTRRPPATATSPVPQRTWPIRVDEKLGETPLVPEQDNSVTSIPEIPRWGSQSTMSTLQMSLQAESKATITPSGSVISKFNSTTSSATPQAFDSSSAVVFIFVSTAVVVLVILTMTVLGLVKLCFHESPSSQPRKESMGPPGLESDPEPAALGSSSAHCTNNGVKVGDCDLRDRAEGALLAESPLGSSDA
Source text: as §1, §2, §3

[3] = target: T3, CD93 (human, wild type, C-terminal GFP tag, expressed in HEK293T) (human, UniProt Q9NPY3 22-652)
T3 construct: On cells in flow cytometry; as non-reduced HEK293T lysate in far western blots; also called CD93 wild type (wt); cell surface expressed CD93; not shown: C-terminal green fluorescent protein (GFP) tag from vector pEGFP-N1
T3 sequence: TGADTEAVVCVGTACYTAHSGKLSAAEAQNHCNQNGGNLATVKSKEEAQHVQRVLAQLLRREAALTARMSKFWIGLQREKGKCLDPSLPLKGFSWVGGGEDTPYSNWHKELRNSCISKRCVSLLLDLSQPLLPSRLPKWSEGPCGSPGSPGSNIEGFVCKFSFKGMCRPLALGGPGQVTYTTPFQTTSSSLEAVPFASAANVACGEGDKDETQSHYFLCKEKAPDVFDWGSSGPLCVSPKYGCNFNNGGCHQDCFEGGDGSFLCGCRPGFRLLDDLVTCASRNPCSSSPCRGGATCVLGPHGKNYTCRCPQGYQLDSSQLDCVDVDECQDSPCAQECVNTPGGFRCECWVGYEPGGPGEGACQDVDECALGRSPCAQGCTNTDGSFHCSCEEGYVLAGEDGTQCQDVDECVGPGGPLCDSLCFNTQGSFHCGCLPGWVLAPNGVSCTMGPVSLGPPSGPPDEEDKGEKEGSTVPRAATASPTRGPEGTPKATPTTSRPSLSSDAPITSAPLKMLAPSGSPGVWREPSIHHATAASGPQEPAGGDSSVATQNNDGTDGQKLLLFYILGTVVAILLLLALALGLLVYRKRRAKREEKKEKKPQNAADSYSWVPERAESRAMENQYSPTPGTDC
Source text: as §1, §2, §3

B1: biotinylated MMRN2^495-674 (human, expressed in E. coli with a His tag and a BirA tag) (ligand)
chain: QKLYLDLDVIREGQRDATRALEETQVSLDERRQLDGSSLQALQNAVDAVSLAVDAHKAEGERARAATSRLRSQVQALDDEVGALKAAAAEARHEVRQLHSAFAALLEDALRHEAVLAALFGEEVLEEMSEQTPGPLPLSYEQIRVALQDAASGLQEQALGWDELAARVTALEQASEPPRP
modifications: biotin on the BirA tag
notes: Used for staining of transfected HEK293T cells in flow cytometry, detected with streptavidin-PE; not shown: BirA tag and His tag (vector pET23a)
B1: no binding (tested: 20 µg/mL) [1]; binds [2]; binds [3].
